Experimental data taken from paper PMC4218819.
pKd: −log10 of the molar value.

Legend:
Assay in all cases: EMSA
Conditions in all cases: 12 mM HEPES-KOH pH 7.6, 10 mM MgCl2, 200 mM NaCl, 4 mM Na2HPO4, 4 mM NaH2PO4, 0.4 mM EDTA, 1 mM DTT, 0.5% BSA, 10% glycerol, 200-fold poly(dI-dC), 1 nM DNA …
[1] = molecular target: AraR WT (Bacillus subtilis) (UniProt P96711)
[2] = molecular target: AraR E30A E30A (Bacillus subtilis) (UniProt P96711)
[3] = molecular target: AraR Y5F Y5F (Bacillus subtilis) (UniProt P96711)
[4] = system: AraR Y5F (Bacillus subtilis)
[5] = system: AraR WT (Bacillus subtilis)
[6] = system: AraR E30A (Bacillus subtilis)

Row | Substance | pKd [1] | pKd [2] | pKd [3] | Kd [4] | Kd [5] | Kd [6]
1 | GATTGACAGTATAATAGTCAATTACTATAATAAAATTGGTCGTACAAATATTTATTTATAGGTTTATTTTCTATCATTAGTACGTATCTTTTGTATTTGAAAGCGTTTTATTTTATGAGAAAGGG (double strand) [ORA1 T6->G] | 7.25 | 6.60 | 6.32 |  |  | 
2 | GATTGACAGTATAATAGTCAATTACTATAATAAAATTGTTCGTACAAAGATTTATTTATAGGTTTATTTTCTATCATTAGTACGTATCTTTTGTATTTGAAAGCGTTTTATTTTATGAGAAAGGG (double strand) [ORA1 T16->G] | 6.96 | 6.46 | 6.45 |  |  | 
3 | GATTGACAGTATAATAGTCAATTACTATAATAAAATTGTTCGTACAAATATTTATTTATAGGTTTATTTTCTATCATTAGTACGTATCTTTTGTATTTGAAAGCGTTTTATTTTATGAGAAAGGG (double strand) [araABDLMNPQ-abfA promoter ORA1-ORA2 WT] | 7.57 | 6.70 | 6.56 |  |  | 
4 | GATTGACAGTATAATAGTCAATTACTATAATAAAATTTTTCGTACAAATATTTATTTATAGGTTTATTTTCTATCATTAGTACGTATCTTTTGTATTTGAAAGCGTTTTATTTTATGAGAAAGGG (double strand) [ORA1 G5->T] | 6.46 | 6.13 |  |  |  | 
5 | GATTGACAGTATAATAGTCAATTACTATAATAACATTGTTCGTACAAATATTTATTTATAGGTTTATTTTCTATCATTAGTACGTATCTTTTGTATTTGAAAGCGTTTTATTTTATGAGAAAGGG (double strand) [ORA1 A1->C] | 7.13 | 6.17 | 6.48 |  |  | 
6 | ORA1 A1->C |  |  |  | 33.1 10^-8 M | 7.4 10^-8 M | 67.5 10^-8 M
7 | ORA1 G5->T |  |  |  | > 200 10^-8 M | 34.5 10^-8 M | 74.8 10^-8 M
8 | ORA1 T6->G |  |  |  | 47.6 10^-8 M | 5.6 10^-8 M | 25.4 10^-8 M
9 | ORA1 T16->G |  |  |  | 35.5 10^-8 M | 11 10^-8 M | 34.7 10^-8 M
10 | araABDLMNPQ-abfA promoter ORA1-ORA2 WT |  |  |  | 27.4 10^-8 M | 2.7 10^-8 M | 19.8 10^-8 M
